Changes are numbered by the printed parent chain. In names and notes the source's numbering stands.
B1: Xpress (Xpr)-tagged human USP15 wild type (WT) (protein)
chain: AEGGAADLDTQRSDIATLLKTSLRKGDTWYLVDSRWFKQWKKYVGFDSWDKYQMGDQNVYPGPIDNSGLLKDGDAQSLKEHLIDELDYILLPTEGWNKLVSWYTLMEGQEPIARKVVEQGMFVKHCKVEVYLTELKLCENGNMNNVVTRRFSKADTIDTIEKEIRKIFSIPDEKETRLWNKYMSNTFEPLNKPDSTIQDAGLYQGQVLVIEQKNEDGTWPRGPSTPNVKNSNYCLPSYTAYKNYDYSEPGRNNEQPGLCGLSNLGNTCFMNSAIQCLSNTPPLTEYFLNDKYQEELNFDNPLGMRGEIAKSYAELIKQMWSGKFSYVTPRAFKTQVGRFAPQFSGYQQQDCQELLAFLLDGLHEDLNRIRKKPYIQLKDADGRPDKVVAEEAWENHLKRNDSIIVDIFHGLFKSTLVCPECAKISVTFDPFCYLTLPLPMKKERTLEVYLVRMDPLTKPMQYKVVVPKIGNILDLCTALSALSGIPADKMIVTDIYNHRFHRIFAMDENLSSIMERDDIYVFEININRTEDTEHVIIPVCLREKFRHSSYTHHTGSSLFGQPFLMAVPRNNTEDKLYNLLLLRMCRYVKISTETEETEGSLHCCKDQNINGNGPNGIHEEGSPSEMETDEPDDESSQDQELPSENENSQSEDSVGGDNDSENGLCTEDTCKGQLTGHKKRLFTFQFNNLGNTDINYIKDDTRHIRFDDRQLRLDERSFLALDWDPDLKKRYFDENAAEDFEKHESVEYKPPKKPFVKLKDCIELFTTKEKLGAEDPWYCPNCKEHQQATKKLDLWSLPPVLVVHLKRFSYSRYMRDKLDTLVDFPINDLDMSEFLINPNAGPCRYNLIAVSNHYGGMGGGHYTAFAKNKDDGKWYYFDDSSVSTASEDQIVSKAAYVLFYQRQDTFSGTGFFPLDRETKGASAATGIPLESDEDSNDNDNDIENENCMHTN
B2: Xpress (Xpr)-tagged human USP15 mutant (L720R) (protein)
chain: B1 chain with L719R

Target: FLAG-tagged TRIM25, Q14258
Sequence (Q14258 whole entry): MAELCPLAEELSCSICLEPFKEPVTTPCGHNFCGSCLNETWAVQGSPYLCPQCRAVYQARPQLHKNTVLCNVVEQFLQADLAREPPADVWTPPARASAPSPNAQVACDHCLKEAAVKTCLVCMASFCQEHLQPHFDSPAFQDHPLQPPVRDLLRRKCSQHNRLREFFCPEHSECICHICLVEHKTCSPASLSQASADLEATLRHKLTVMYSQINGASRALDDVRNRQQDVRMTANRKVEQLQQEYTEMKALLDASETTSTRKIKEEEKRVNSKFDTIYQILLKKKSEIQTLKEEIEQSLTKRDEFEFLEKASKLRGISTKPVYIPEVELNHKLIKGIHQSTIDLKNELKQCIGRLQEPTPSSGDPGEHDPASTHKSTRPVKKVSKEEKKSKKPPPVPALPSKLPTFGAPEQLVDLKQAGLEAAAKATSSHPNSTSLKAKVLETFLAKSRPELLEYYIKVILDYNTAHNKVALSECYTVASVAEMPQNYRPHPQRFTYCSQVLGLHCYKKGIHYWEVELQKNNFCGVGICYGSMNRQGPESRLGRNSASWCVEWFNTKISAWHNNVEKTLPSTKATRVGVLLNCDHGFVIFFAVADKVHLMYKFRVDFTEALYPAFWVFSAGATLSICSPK

| Protein | deubiquitination of TRIM25 (anti-FLAG immunoprecipitation, immunoblot with anti-ubiquitin and anti-TRIM25 antibodies) | deubiquitinase activity towards TRIM25 (anti-FLAG immunoprecipitation, immunoblot with anti-ubiquitin and anti-TRIM25 antibodies) |
| --- | --- | --- |
| B1 | we observed that TRIM25 is a target for deubiquitination by USP15 |  |
| B2 |  | we observed a reduced deubiquitinase activity in the L749R variant (the corresponding human L720R isoform was tested), when compared to WT |

Source: patent US20220017960
